Measured values from patent US20240412835.

Test system: PD-1 TALEN (left/right pair, split FokI) (synthetic construct)
Test: cell_activity
Conditions: median of 6 TIL lots (38.09-74.73), NGS; document lists two candidate PD-1 TALEN pairs and does not state which was used

PDCD1 exon 2 target site was tested. Which activity did it give?
The activity was 54 % indels.
